The target in assay [1] is ADM (human or mouse, not stated for this control). As to the kind of experiment: cell-based or functional assay.
In assay [2] the target is human recombinant adrenomedullin receptor (CRLR+RAMP3) (human).

As for Non specific mouse IgG (antibody), the Maximal inhibition of ADM bioactivity (ADM-Bioassay) (%) in assay [1] was 0%.
For the substance “human adrenomedullin (hADM 1-52) (peptide)”, the EC50 (read off the curve), cAMP formation in assay [2] was 1 nM.
